Measurements published in the supplement of paper PMC5998384.

Tests used:
[1] = test system: HeLa Kyoto; assay: solubility in G1/S (NP-40 vs SDS abundance) (log2 ratio); higher = more soluble; conditions: cell cycle stage: G1/S
[2] = test system: HeLa Kyoto; assay: solubility change mitosis vs G1/S (difference of NP-40 vs SDS log2 ratios) (log2 ratio difference); higher = more soluble in mitosis
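For solubility change mitosis vs G1/S (difference of NP-40 vs SDS log2 ratios) in this document: synchronized HeLa Kyoto cells (double thymidine block for G1/S, nocodazole release for mitosis), protein amounts in NP-40 versus SDS lysates quantified by mass spectrometry, three biological replicates.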
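For solubility in G1/S (NP-40 vs SDS abundance) in this document: HeLa Kyoto cells arrested at G1/S by double thymidine block, proteins quantified by TMT10plex mass spectrometry in mild NP-40 versus SDS extracts, three biological replicates.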

| Sequence | solubility in G1/S (log2) [1] | solubility change mitosis (log2) [2] |
| --- | --- | --- |
| MAAAKPTLTDSLSFCLAQLAAAAGEALGGEKDPATNETPLSRALLALRTRHIKAAGGIERFRARGGLRPLLALLRRAAAAGSAPSQAGPGSAPSSAASGASSPAPASGPAPSAVSSSSPTPPVRLRKTLDLALSILADCCTEGACRTEVRRLGGILPLVTILQCMKTDSIQNRTARALGNLAMEPESCGDIHCAGAVPLLVESLTACQDSQCLQSVVRALRNLADSPQHRLALAQQGAVRPLAELLATAPDAALTLALVRALLELSRGCSRACAEQLSLGGGLGPLVSLASHPKRAVREGTILILANLCAQGLIRPALGNAGGVEVLVDELRQRRDPNGASPTSQQPLVRAVCLLCREAINRARLRDAGGLDLLMGLLRDPRASAWHPRIVAALVGFLYDTGALGRLQALGLVPLLAGQLCGEAGEEEEEGREAASWDFPEERTPERAQGGSFRSLRSWLISEGYATGPDDISPDWSPEQCPPEPMEPASPAPTPTSLRAPRTQRTPGRSPAAAIEEPWGREGPALLLLSRFSQAPDPSGALVTGPALYGLLTYVTGAPGPPSPRALRILSRLTCNPACLEAFVRSYGAALLRAWLVLGVAPDDWPAPRARPTLHSRHRELGERLLQNLTVQAESPFGVGALTHLLLSGSPEDRVACALTLPFICRKPSLWRRLLLEQGGLRLLLAALTRPAPHPLFLFFAADSLSCLQDLVSPTVSPAVPQAVPMDLDSPSPCLYEPLLGPAPVPAPDLHFLLDSGLQLPAQRAASATASPFFRALLSGSFAEAQMDLVPLRGLSPGAAWPVLHHLHGCRGCGAALGPVPPPGQPLLGSEAEEALEAAGRFLLPGLEEELEEAVGRIHLGPQGGPESVGEVFRLGRPRLAAHCARWTLGSEQCPRKRGLALVGLVEAAGEEAGPLTEALLAVVMGIELGARVPA [ARMC5] | 0.0745 | 0.0453 |
| MPDNRQPRNRQPRIRSGNEPRSAPAMEPDGRGAWAHSRAALDRLEKLLRCSRCTNILREPVCLGGCEHIFCSNCVSDCIGTGCPVCYTPAWIQDLKINRQLDSMIQLCSKLRNLLHDNELSDLKEDKPRKSLFNDAGNKKNSIKMWFSPRSKKVRYVVSKASVQTQPAIKKDASAQQDSYEFVSPSPPADVSERAKKASARSGKKQKKKTLAEINQKWNLEAEKEDGEFDSKEESKQKLVSFCSQPSVISSPQINGEIDLLASGSLTESECFGSLTEVSLPLAEQIESPDTKSRNEVVTPEKVCKNYLTSKKSLPLENNGKRGHHNRLSSPISKRCRTSILSTSGDFVKQTVPSENIPLPECSSPPSCKRKVGGTSGRKNSNMSDEFISLSPGTPPSTLSSSSYRRVMSSPSAMKLLPNMAVKRNHRGETLLHIASIKGDIPSVEYLLQNGSDPNVKDHAGWTPLHEACNHGHLKVVELLLQHKALVNTTGYQNDSPLHDAAKNGHVDIVKLLLSYGASRNAVNIFGLRPVDYTDDESMKSLLLLPEKNESSSASHCSVMNTGQRRDGPLVLIGSGLSSEQQKMLSELAVILKAKKYTEFDSTVTHVVVPGDAVQSTLKCMLGILNGCWILKFEWVKACLRRKVCEQEEKYEIPEGPRRSRLNREQLLPKLFDGCYFYLWGTFKHHPKDNLIKLVTAGGGQILSRKPKPDSDVTQTINTVAYHARPDSDQRFCTQYIIYEDLCNYHPERVRQGKVWKAPSSWFIDCVMSFELLPLDS [BARD1] | -0.332 | 0.187 |
| MPIPPPPPPPPGPPPPPTFHQANTEQPKLSRDEQRGRGALLQDICKGTKLKKVTNINDRSAPILEKPKGSSGGYGSGGAALQPKGGLFQGGVLKLRPVGAKDGSENLAGKPALQIPSSRAAAPRPPVSAASGRPQDDTDSSRASLPELPRMQRPSLPDLSRPNTTSSTGMKHSSSAPPPPPPGRRANAPPTPLPMHSSKAPAYNREKPLPPTPGQRLHPGREGPPAPPPVKPPPSPVNIRTGPSGQSLAPPPPPYRQPPGVPNGPSSPTNESAPELPQRHNSLHRKTPGPVRGLAPPPPTSASPSLLSNRPPPPARDPPSRGAAPPPPPPVIRNGARDAPPPPPPYRMHGSEPPSRGKPPPPPSRTPAGPPPPPPPPLRNGHRDSITTVRSFLDDFESKYSFHPVEDFPAPEEYKHFQRIYPSKTNRAARGAPPLPPILR [WIPF2] | -0.764 | 1.2 |
